The values below come from patent US20100172835A1 (BURNHAM INSTITUTE FOR MEDICAL RESEARCH, published 2010).

Bridges are numbered along the chain shown (N, C = ends). Where no end group is shown, it is not given here.

For test [1], the target named is T1, gC1qR/p32 at the cell surface (human, UniProt Q07021 74-282).
T1 construct: whole, on cells; also called cell surface p32
T1 sequence (looked up): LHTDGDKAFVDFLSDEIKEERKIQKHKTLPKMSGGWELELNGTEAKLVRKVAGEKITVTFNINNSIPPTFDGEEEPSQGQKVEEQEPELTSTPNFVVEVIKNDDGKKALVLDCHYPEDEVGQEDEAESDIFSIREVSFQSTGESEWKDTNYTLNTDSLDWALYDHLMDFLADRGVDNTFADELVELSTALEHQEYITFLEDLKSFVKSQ
Description: LyP-1 phage binding to Raji cells pre-incubated with 40 µg/ml mAb; ligand blocked: LyP-1 phage.

The target of test [2] is T2, purified gC1qR/p32 protein (human, UniProt Q07021 74-282).
T2 construct: also called purified p32
T2 sequence (looked up): T1 sequence (looked up)
Description: LyP-1 phage binding to wells coated with purified gC1qR/p32 with 20 µg/ml mAb; ligand blocked: LyP-1 phage.

The target of test [3] is T1, gC1qR/p32 at the cell surface. The test can be described thus: FACS of FITC-peptide on MDA-MB-435 cells transfected with p32 siRNA or control siRNA. The procedure: (§1) 48 hours after transfection, inhibition of p32 expression was checked by immunoblot analysis and immunostaining (upper panels). β-actin was used as a control. […] Cells incubated in the absence of peptide served as negative control. […] A representative experiment out of three is shown. C. […] Insertless phage was used to determine background phage binding.
(§2) MDA-MB-435 cells were transiently transfected with gC1qR/p32-specific or control siRNAs. […] The amount of fluorescence in living cells was analyzed by FACS. Cells incubated in the absence of peptide served as FITC negative control.

For test [4], the target named is T3, gC1qR/p32 from tumor cell extracts (human, UniProt Q07021 74-282).
T3 construct: mature; From xenograft extracts an additional 75 kD band was also identified as gC1qR/p32; also called gC1q/p32 receptor; p32/p33/gC1qR/HABP1
T3 sequence (looked up): T1 sequence (looked up)
The test can be described thus: pull-down from MDA-MB-435 extracts, anti-gC1qR/p32 immunoblot.

Test [5] has as its target T2, purified gC1qR/p32 protein. The test can be described thus: phage binding to wells coated with purified gC1qR/p32, plaque assay.
Test [6] concerns the target T1, gC1qR/p32 at the cell surface. Description: phage binding to C8161 cells transiently transfected with gC1qR/p32 cDNA. The procedure: as §1, with “A. C8161 cells were transiently transfected with pEGFP together with either empty pcDNA3.1 vector or p32 pcDNA3.1 vector. Transfected cells were sorted for EGFP expression and the sorted populations were used for phage binding assay and immunoblot analysis with anti-p32. […] 48” for “48”

Test [7] concerns the target αv integrins. The test can be described thus: assay not described in the filing.
The target of test [8] is T1, gC1qR/p32 at the cell surface. Description: FACS of 10 µM FITC-LyP-1 on MDA-MB-435 S35 cells with p32 siRNA or control siRNA. The procedure: as §1, §2
For test [9], the target named is T4, neuropilin-1 by forced expression on M21 cells (Homo sapiens (Human), UniProt O14786 22-923). Description: cell-based or functional assay.
Test [10] addresses T4, neuropilin-1 by forced expression on …. The test can be described thus: CRGDK phage binding to M21 cells transfected with neuropilin-1 cDNA, against untransfected or vector-only cells.

T4 sequence (O14786 22-923 limits assumed, form in doubt): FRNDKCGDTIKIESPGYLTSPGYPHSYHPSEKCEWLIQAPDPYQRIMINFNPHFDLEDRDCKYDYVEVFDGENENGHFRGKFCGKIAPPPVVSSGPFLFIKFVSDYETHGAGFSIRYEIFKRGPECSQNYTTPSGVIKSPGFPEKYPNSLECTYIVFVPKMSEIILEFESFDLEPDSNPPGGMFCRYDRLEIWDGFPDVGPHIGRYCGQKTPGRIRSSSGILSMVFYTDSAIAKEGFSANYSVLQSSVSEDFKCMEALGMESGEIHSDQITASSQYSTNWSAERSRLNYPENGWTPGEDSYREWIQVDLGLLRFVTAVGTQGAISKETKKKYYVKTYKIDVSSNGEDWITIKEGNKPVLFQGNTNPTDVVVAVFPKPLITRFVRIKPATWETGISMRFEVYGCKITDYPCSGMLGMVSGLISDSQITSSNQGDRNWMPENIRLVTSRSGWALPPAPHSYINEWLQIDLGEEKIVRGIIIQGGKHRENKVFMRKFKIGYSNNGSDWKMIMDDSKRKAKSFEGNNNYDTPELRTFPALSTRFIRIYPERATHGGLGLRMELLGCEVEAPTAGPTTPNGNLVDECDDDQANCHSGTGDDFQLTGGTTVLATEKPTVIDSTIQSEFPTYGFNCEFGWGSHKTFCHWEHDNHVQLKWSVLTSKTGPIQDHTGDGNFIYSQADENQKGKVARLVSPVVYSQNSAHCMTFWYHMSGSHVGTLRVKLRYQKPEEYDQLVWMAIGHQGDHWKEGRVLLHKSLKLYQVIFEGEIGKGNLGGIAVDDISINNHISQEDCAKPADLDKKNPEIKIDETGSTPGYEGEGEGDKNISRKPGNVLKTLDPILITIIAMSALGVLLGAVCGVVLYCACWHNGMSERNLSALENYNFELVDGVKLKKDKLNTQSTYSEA

In test [1], “mouse monoclonal 60.11 anti-gC1qR/p32 antibody” registered a reduction of LyP-1 binding of 50%. In [2], this molecule yielded a reduction of LyP-1 phage binding of 90%.

B1: FITC conjugated control peptide ARALPSQRSR (peptide)
peptide: ARALPSQRSR
modifications: also: FITC conjugated, position not given here
As for B1, the binding result in test [3] is listed as “no binding (tested: 10 µM)”.

B2: biotinylated CRV peptide (peptide)
peptide: CRVRTRSGC
modifications: disulfide 1-9 (inferred); also: biotinylated, site not given here
notes: Negative control in the pull-down; also called control peptide
For the molecule B2, the binding result in test [4] is “no binding”.

B3: biotinylated CREKA peptide (peptide)
peptide: CREKA
modifications: also: biotinylated, position not given here
notes: as for B2
Take B3: the binding result in test [4] is recorded as “no binding”.

B4: LyP-1 phage (other, not shown: large carriers)
chain: CGNKRTRGC
modifications: cysteine pairing not given here; also: displayed on phage coat protein
notes: Phage displaying the LyP-1 peptide; also called Lyp-1 expressing phage
Take B4: the “fold binding over insertless control phage” value in [5] amounted to 60 fold. Also, the “fold binding over control phage” value in test [6] was determined as 5 fold.

B5: CRGDK fragment (peptide)
peptide: CRGDK
The molecule B5 came in with a fold reduction in affinity (against iRGD) in test [7] of 50 to 150 fold.

B6: FITC conjugated LyP-1 peptide (peptide)
peptide: CGNKRTRGC
modifications: disulfide 1-9 (inferred); also: FITC conjugated, position not given here
notes: Used at 10 uM on cells at 4 C; also called FITC-LyP-1
As for B6, the binding result in [8] is given as “binds”.

B7: CRGDK phage (other)
chain: CRGDK
modifications: also: displayed on T7 phage capsid protein
notes: not shown: T7 phage capsid protein
In the case of B7, the “internalization of CRGDK phage into M21 cells” value in test [9] came to 3.5 fold. The “fold increase in binding upon forced expression of neuropilin-1” value in test [10] turned out to be 3.5 fold.
